# Experimental data published in patent publication US20190284258.
# Tested on: T1, Haemadipsa sylvestris antithrombotic peptide Sylvestin
# T1 sequence: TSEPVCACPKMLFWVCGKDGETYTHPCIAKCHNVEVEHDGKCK
Substance,"enzyme kinetics, chromogenic substrate, OD 405 nm; sample 10 µM","enzyme kinetics, chromogenic substrate, OD 405 nm"
thrombin,"had no inhibitory effect on thrombin, plasminogen FXa or the like",
FXIIa,,it can inhibit FXIIa and kallikrein
plasminogen,"had no inhibitory effect on thrombin, plasminogen FXa or the like",
kallikrein,,it can inhibit FXIIa and kallikrein
FXa,"had no inhibitory effect on thrombin, plasminogen FXa or the like",
